Experimental data published in the nanobody polyreactivity screen of Harvey et al. (2022).

experiment: yeast display, Sf9 membrane polyspecificity reagent, FACS + sequencing; frameworks hold sequencing errors
How it was run: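 Galactose induction of a Saccharomyces cerevisiae BJ5465 synthetic nanobody display library ran 36–48 hours. The cells were then stained for 1 hour at 4 °C with 10% biotinylated, detergent-solubilized Sf9 membrane reagent, pulled down on streptavidin microbeads and FACS-sorted into low and high (top ~1%) gates on expression and reagent-binding fluorescence. Labels for polyreactivity follow the gate of origin.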

Sequence	polyreactivity (PSR sort gate)
QVQLVESGGGLVQAGGSLRLICAASGSIFYIYAMGWYRQAPGKERELVAVIDNSGSTNYADSVKGRFTISRDNAKNTVYLLINSLKPEDTADYYCLKLWLWASYLYDYWGQGTQVTVSS	low polyreactivity
QVQLVESGGGLVQAGGSLRLICAASGSILSINGMGWYRQAPGKERELVATIDGSDGSTFYADSVKGRFTISRDNAKNTVYLQMNSLKPEDTAVYYCAAENFWQTKEYDYWGQGTQVTVSS	low polyreactivity
QVQLVESGGGLVQAGGSLRLICAASGSSFSYNPMVWYRQAPGKERELVAAIRTSGGRTYYADSVKGRFTISRDNAKNTVYLQMNSLKPEDTAVYYCAKRWVYSYGYEYWGQGTQVTVSS	high polyreactivity
QVQLVESGGGLVQAGGSLRLICAASGSTCVDNAMGGYRPAPGKERELVADISSVGSTYYADYVKGRFTISRDNAKNTVYLQMNTLIPEDTAVYYCNRAGGYRTTFYSWGQGTQVTVSS	high polyreactivity
QVQLVESGGGLVQAGGSLRLICAASGSTFAYNTMGWYRPAPGKERELVAAISWRGTRTYYADSVKGRFTISRDNAKNTVYLQMNSLKPEDTAVYYCATKYGISYDYWGLGTQVTVSS	high polyreactivity
QVQLVESGGGLVQAGGSLRLICAASGSTFCRYAMGRDRQARGKEMELVAAISTRGGSTRYADSVKGRFTISRDYAKYTVYLLINRLKPEDTGVYYCDALGQGRTSATSFVDYEYWGQGTQVTVSS	high polyreactivity
QVQLVESGGGLVQAGGSLRLICAASGSTFDINAMGWYRQAPGKERELVAAITWRSGRTYYADSVKGRFTISRDNAKNTVYLQMNSLKPEDTAVYYCAADDTSYYIYSYDYWGQGTQVTVSS	low polyreactivity
QVQLVESGGGLVQAGGSLRLICAASGSTFGEYAMGWYRQAHGKERELVAVITSDDNTYYADSVKGRFTISRDNAKNTVYLQMNSLKPEDTAVYYCAARGYVLARSQQWRREYYWGQGTQVTVSS	high polyreactivity
QVQLVESGGGLVQAGGSLRLICAASGSTFGGNVMGWYRQAPGKERELVAAINWSGGRTYYADSVKGRFTISRDNAKNTVYLQMNSLKPEDTAVYYCAADGGQNGMNYWGQGTQVTVSS	high polyreactivity
QVQLVESGGGLVQAGGSLRLICAASGSTFGIYAMGWFRQAPGKERELVAAISWRGGRTYYADSVKGSFTISRDNAKNNVYLQRNSLKPEDTAVYNCSADYRYLWEGYDYWGQGTQVTVSS	low polyreactivity
QVQLVESGGGLVQAGGSLRLICAASGSTFGRYAMGWYRQAPGKERELVAGITYGSTYYADSVKGRFTISRDNAKNTVYLQMHSLKPEDTAVYYCAADLSYTSVHGYRSDTLMDYWRQGTQVTVSS	low polyreactivity
QVQLVESGGGLVQAGGSLRLICAASGSTFGYYTMGWYRQAPGKERELVAAITWSGGSTYYADSVKGRFTISRDYANNTVYLQMNSLKPEDTAVYYCAADDYWTPFGYWGQGTQVTVLS	low polyreactivity
QVQLVESGGGLVQAGGSLRLICAASGSTFIVYAMGWSRQAPGKEREFVAAISSGDSTKYADSVKGRFTISRDNAKNTVYLQMNSLKPEDTAVYYCAKYGQRSIHSPSLVGYYYWGQGTQVTVSS	low polyreactivity
QVQLVESGGGLVQAGGSLRLICAASGSTFKRYAMGWYRPAPGNERELVAAISSTGGSTFYADSVKGRFTISRDIAKYTVYLQMNSLKREDTAVYYCKKYRATNSARDYWGQGTQVTVSS	high polyreactivity
QVQLVESGGGLVQAGGSLRLICAASGSTFLVNTMGWYRQAPGKERELVAAISYSGGRTYYADSVKGRFTISRDNAKNTVYFQMNSLKPEDTAVYYCAARYYRTRREGVDYWGQGTQVTVSS	high polyreactivity
QVQLVESGGGLVQAGGSLRLICAASGSTFNGNDRGWYRQAPGKERELVATISDGGRTYYADSVKGRFTISRDNAKITVYLQMNSLKPEDTAVYYCAAPVYVPRAWFYYWGQGTQVTVSS	low polyreactivity

Sequence	polyreactivity (PSR sort gate)
QVQLVESGGGLVQAGGSLRLICAASGSTFNVYAMGWYIPAPGKERELVASIRTSGTRTYYADSVKGRFTISRDNAKNNVYLQMNSLKPEDTAVYYCNARYYSNLRRHGGYWGQGTQVTVSS	high polyreactivity
QVQLVESGGGLVQAGGSLRLICAASGSTFQSYAMGWYRQAPGKERELVAAISARGGTTYYADSVKGRFTISRDNAKNTVYLQMNSLKPEDTAVYYCAAVDHSVYSGSPDTGESDYWGQGTQVTVSS	low polyreactivity
QVQLVESGGGLVQAGGSLRLICAASGSTFSSYFMGWYRQAPRKERKLVAAITRSGVYTYYADSVKGRFTISRDNAKNTVYLQMNSLKPEDTAVYYCARRAKGAYWNEYNYWGQGTQVTVSS	high polyreactivity
QVQLVESGGGLVQAGGSLRLICAASGSTFSYYTIGWYRTAPGKEMELVATISRRGASTYYADSVKGRFTISLDNAKNTVYLQMNSLKPEDTAVYYCAKSYYYGRSATRPEYDYWGQGTQVTVSS	high polyreactivity
QVQLVESGGGLVQAGGSLRLICAASGSTFTGYAMGWYRQAPGKERELVAGITGSGGSTYYADSVKGRFTISRDNAKNTVYLQMNSLKPEDTAVYYCAAELYDYGDLYYSEYDYWGQGTQVTVSS	low polyreactivity
QVQLVESGGGLVQAGGSLRLICAASGSTFYYNDMGWYRQAPGKERELVAAITGDGTTDYADSVKGRFTISRDNAKNTVYLQMNSLKPEDTAVYYCATTWSTYKWPDAYIIWYGYWGQGTQVTVSS	high polyreactivity
QVQLVESGGGLVQAGGSLRLICAASGSTLAYNAMGWYRQAPGKERELVAGIRGSGGSTYYADSVKGRFTISRDNAKNTVYLQMNSLKPEDTAVYDCAADGLSNVRQMDYWGQGTQVTVSS	low polyreactivity
QVQLVESGGGLVQAGGSLRLICAASGSTSWINAMGWYIQAPGKERELVAAISGRDGSTNYADSVKGRFTISRDNAKNTVYLLMNSLKPEDTAVYYCNANGRRFNRYGGDYWGLGTQVTVSS	high polyreactivity
QVQLVESGGGLVQAGGSLRLICAASGSTYRGYAMGWYRQAPGKERELVAAISYISGGTYYADSVKGRFTISRDNAKYTVYLQMNSLKPEDTAVYYCAVGSHSRSSNSYYYWGQGTQVTVSW	low polyreactivity
QVQLVESGGGLVQAGGSLRLICAASGTTFLSYAMGWYRQAQGKDRELVAAISWSGGRTYYAHSVKGRFTISRDNAKNTVYLQMNSLKPEDTAVYYCAAPHVPFTKHEYEYWGQGTQVTLSS	low polyreactivity
QVQLVESGGGLVQAGGSLRLICAASGVIFTGYTMGWYREAPGKESELVAAISYRGGSTYYADSVKGRFTISRDNAKITVYFQMNRLKPEDTAVYYCNAVWSNFRLGYDHWGQGTQVTVSS	high polyreactivity
QVQLVESGGGLVQAGGSLRLICAASGYIFYKNAMGWYRQAPGKERELVASITGTGGSTYYADSVKGRFTISRDNAKNTVYLQMNSLKPEDTAVYYCAADYTPWDPVSHWGQGTQVTVSS	low polyreactivity
QVQLVESGGGLVQAGGSLRLICAASGYTFYFYAMGWYIQAPGKERELVAAITGGGTTSYADSVKGRFTISRDKAKNTVYLQMNSLKPEDTAVYYCASSVRNNIERYRDYYWGQGTQVTVSS	low polyreactivity
QVQLVESGGGLVQAGGSLRLICAATGRIFSPNAMGWYRQAPGKERELVAAITTSGGITYYADSVKGRFTISRDNAKNTVYLQMNSLKPEDTAVYYCNTGYNGRLRDDYWGQGTQVTVSS	high polyreactivity
QVQLVESGGGLVQAGGSLRLICAATGSTLVSNAMGWYRKDPGKERELVAAISTSGGSTYYADSVKGRFTISRDNAKNTVYLQMNSLKPEDTAVYYCAAPYAGWGDGGDYWGQGTQVTVSS	low polyreactivity
